Data as given in paper PMC9365671.

B1: full-length human KIF5B-mScarlet-StrepII, P33176 1-963 (natural protein)
chain: MADLAECNIKVMCRFRPLNESEVNRGDKYIAKFQGEDTVVIASKPYAFDRVFQSSTSQEQVYNDCAKKIVKDVLEGYNGTIFAYGQTSSGKTHTMEGKLHDPEGMGIIPRIVQDIFNYIYSMDENLEFHIKVSYFEIYLDKIRDLLDVSKTNLSVHEDKNRVPYVKGCTERFVCSPDEVMDTIDEGKSNRHVAVTNMNEHSSRSHSIFLINVKQENTQTEQKLSGKLYLVDLAGSEKVSKTGAEGAVLDEAKNINKSLSALGNVISALAEGSTYVPYRDSKMTRILQDSLGGNCRTTIVICCSPSSYNESETKSTLLFGQRAKTIKNTVCVNVELTAEQWKKKYEKEKEKNKILRNTIQWLENELNRWRNGETVPIDEQFDKEKANLEAFTVDKDITLTNDKPATAIGVIGNFTDAERRKCEEEIAKLYKQLDDKDEEINQQSQLVEKLKTQMLDQEELLASTRRDQDNMQAELNRLQAENDASKEEVKEVLQALEELAVNYDQKSQEVEDKTKEYELLSDELNQKSATLASIDAELQKLKEMTNHQKKRAAEMMASLLKDLAEIGIAVGNNDVKQPEGTGMIDEEFTVARLYISKMKSEVKTMVKRCKQLESTQTESNKKMEENEKELAACQLRISQHEAKIKSLTEYLQNVEQKKRQLEESVDALSEELVQLRAQEKVHEMEKEHLNKVQTANEVKQAVEQQIQSHRETHQKQISSLRDEVEAKAKLITDLQDQNQKMMLEQERLRVEHEKLKATDQEKSRKLHELTVMQDRREQARQDLKGLEETVAKELQTLHNLRKLFVQDLATRVKKSAEIDSDDTGGSAAQKQKISFLENNLEQLTKVHKQLVRDNADLRCELPKLEKRLRATAERVKALESALKEAKENASRDRKRYQQEVDRIKEAVRSKNMARRGHSAQIAKPIRPGQHPAASPTHPSAIRGGGAFVQNSQPVAVRGGGGKQV
B2: full-length human KIF5A-mScarlet-StrepII, Q12840 1-1032 (natural protein)
chain: MAETNNECSIKVLCRFRPLNQAEILRGDKFIPIFQGDDSVVIGGKPYVFDRVFPPNTTQEQVYHACAMQIVKDVLAGYNGTIFAYGQTSSGKTHTMEGKLHDPQLMGIIPRIARDIFNHIYSMDENLEFHIKVSYFEIYLDKIRDLLDVTKTNLSVHEDKNRVPFVKGCTERFVSSPEEILDVIDEGKSNRHVAVTNMNEHSSRSHSIFLINIKQENMETEQKLSGKLYLVDLAGSEKVSKTGAEGAVLDEAKNINKSLSALGNVISALAEGTKSYVPYRDSKMTRILQDSLGGNCRTTMFICCSPSSYNDAETKSTLMFGQRAKTIKNTASVNLELTAEQWKKKYEKEKEKTKAQKETIAKLEAELSRWRNGENVPETERLAGEEAALGAELCEETPVNDNSSIVVRIAPEERQKYEEEIRRLYKQLDDKDDEINQQSQLIEKLKQQMLDQEELLVSTRGDNEKVQRELSHLQSENDAAKDEVKEVLQALEELAVNYDQKSQEVEEKSQQNQLLVDELSQKVATMLSLESELQRLQEVSGHQRKRIAEVLNGLMKDLSEFSVIVGNGEIKLPVEISGAIEEEFTVARLYISKIKSEVKSVVKRCRQLENLQVECHRKMEVTGRELSSCQLLISQHEAKIRSLTEYMQSVELKKRHLEESYDSLSDELAKLQAQETVHEVALKDKEPDTQDADEVKKALELQMESHREAHHRQLARLRDEINEKQKTIDELKDLNQKLQLELEKLQADYEKLKSEEHEKSTKLQELTFLYERHEQSKQDLKGLEETVARELQTLHNLRKLFVQDVTTRVKKSAEMEPEDSGGIHSQKQKISFLENNLEQLTKVHKQLVRDNADLRCELPKLEKRLRATAERVKALEGALKEAKEGAMKDKRRYQQEVDRIKEAVRYKSSGKRGHSAQIAKPVRPGHYPASSPTNPYGTRSPECISYTNSLFQNYQNLYLQATPSSTSDMYFANSCTSSGATSSGGPLASYQKANMDNGNATDINDNRSDLPCGYEAEDQAKLFPLHQETAAS

Key:
Conditions in all cases: remark: other sources report otherwise
[1] = target: T1, full-length human KIF5B-mScarlet-StrepII (human), P33176; test: SEC-MALS; purified full-length KIF5 alone; BioSep SEC-s4000 column, GF150 buffer (25 mM HEPES-KOH, 150 mM KCl, 2 mM MgCl2)
T1 chain: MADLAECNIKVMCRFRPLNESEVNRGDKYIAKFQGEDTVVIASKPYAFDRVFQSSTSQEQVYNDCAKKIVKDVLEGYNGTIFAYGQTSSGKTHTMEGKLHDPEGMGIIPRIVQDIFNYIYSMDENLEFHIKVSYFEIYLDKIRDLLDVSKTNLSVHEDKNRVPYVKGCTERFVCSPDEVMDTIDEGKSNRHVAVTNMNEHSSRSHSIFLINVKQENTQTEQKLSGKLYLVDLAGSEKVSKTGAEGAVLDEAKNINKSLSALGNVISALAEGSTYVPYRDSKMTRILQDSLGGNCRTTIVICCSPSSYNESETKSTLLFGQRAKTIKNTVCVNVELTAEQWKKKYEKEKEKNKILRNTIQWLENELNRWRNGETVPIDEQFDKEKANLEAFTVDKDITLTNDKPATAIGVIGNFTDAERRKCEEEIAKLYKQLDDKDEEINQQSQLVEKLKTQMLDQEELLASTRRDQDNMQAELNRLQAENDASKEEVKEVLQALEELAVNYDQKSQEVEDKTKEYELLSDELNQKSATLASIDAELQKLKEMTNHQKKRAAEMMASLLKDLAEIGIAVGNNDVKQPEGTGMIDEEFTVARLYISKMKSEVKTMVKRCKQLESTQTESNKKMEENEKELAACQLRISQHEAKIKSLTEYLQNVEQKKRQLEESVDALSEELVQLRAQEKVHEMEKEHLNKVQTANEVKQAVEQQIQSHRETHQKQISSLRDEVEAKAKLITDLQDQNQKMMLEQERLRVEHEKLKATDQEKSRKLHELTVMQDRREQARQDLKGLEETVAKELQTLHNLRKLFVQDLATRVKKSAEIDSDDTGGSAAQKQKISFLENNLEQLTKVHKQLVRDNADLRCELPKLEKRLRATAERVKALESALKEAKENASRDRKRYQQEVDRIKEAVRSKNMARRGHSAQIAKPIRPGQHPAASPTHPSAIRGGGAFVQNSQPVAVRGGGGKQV

[2] = target: T2, full-length human KIF5A-mScarlet-StrepII (human), Q12840; test: as above
T2 chain: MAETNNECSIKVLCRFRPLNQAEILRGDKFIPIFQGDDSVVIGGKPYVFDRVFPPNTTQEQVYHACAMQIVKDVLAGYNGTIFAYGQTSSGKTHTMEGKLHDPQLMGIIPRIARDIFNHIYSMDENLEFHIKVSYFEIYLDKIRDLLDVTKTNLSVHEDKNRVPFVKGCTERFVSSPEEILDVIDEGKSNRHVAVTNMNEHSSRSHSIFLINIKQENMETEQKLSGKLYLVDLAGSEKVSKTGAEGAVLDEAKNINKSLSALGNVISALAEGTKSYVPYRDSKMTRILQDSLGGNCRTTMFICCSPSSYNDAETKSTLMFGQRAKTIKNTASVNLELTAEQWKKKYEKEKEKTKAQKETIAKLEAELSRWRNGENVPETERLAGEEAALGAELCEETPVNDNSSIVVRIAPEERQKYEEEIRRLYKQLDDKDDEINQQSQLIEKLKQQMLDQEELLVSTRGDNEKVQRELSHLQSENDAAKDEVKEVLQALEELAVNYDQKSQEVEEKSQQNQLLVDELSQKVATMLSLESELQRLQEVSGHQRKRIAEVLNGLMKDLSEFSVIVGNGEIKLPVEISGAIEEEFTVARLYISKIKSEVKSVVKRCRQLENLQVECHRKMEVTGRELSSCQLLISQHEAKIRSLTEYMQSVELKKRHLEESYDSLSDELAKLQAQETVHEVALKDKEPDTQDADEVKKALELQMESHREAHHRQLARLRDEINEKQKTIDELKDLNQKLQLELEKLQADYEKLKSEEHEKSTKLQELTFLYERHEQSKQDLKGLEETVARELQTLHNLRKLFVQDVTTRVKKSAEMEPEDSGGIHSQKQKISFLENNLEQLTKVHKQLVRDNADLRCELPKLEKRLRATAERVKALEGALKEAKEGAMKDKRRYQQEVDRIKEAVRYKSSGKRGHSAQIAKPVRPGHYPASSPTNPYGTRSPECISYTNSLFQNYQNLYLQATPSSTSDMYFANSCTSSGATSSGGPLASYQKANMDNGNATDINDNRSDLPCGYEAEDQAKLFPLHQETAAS

[3] = target: T2, full-length human …; test: single-molecule fluorescence brightness (TIRF microscopy); brightness of motile KIF5A-mScarlet molecules on microtubules, ATP

Binder	stoichiometry N [1]	stoichiometry N [2]	stoichiometry N [3]
B1	2		
B2		4	4
